{
  "source": "patent US20140234868A1",
  "about": "“USE FOR GLYCOLIPOPROTEIN GINTONIN, ISOLATED AND IDENTIFIED FROM GINSENG, AS A NATURAL MEDICAL-PLANT DERIVED LIGAND” (KONKUK UNIVERSITY INDUSTRIAL COOPERATION CORP., priority 2011, published 2014)",
  "molecules": {"B1": {"name": "gintonin: ginseng-derived glycolipoprotein; structural protein of ginseng major latex-like protein (MLP151) and ribonuclease-like storage proteins; crude gintonin used in tests (protein)", "chain 1": "MGLTGKLICQTGIKSDGDVFHELFGTRPHHVPNITPANIQGCDLHEGEFGKVGSVVIWNYSIDGNAMIAKEEIVAIDEEDKSVTFKVVEGHLFEEFKSIVFSVHVDTKGEDNLVTWSIDYEKLNESVKDPTSYLDFLLSVTRDIEAHHLPK", "chain 2": "RSDYPWAMFALRLQWPAGFCEVNNACDTKSLLNTFTIHGLYPYNAKGTPALYCDGTAFDVNSVSDFLAEMHLAWPSHETNTEDIQFWEHEWKKHGRCSEALLKQTDYFRTALAFRKAFDIVGLLNQEGIYPNNDLYRPKMIKEAIKKHLNAVPEIDFTKNENSEYVLTDINVCVNQQATRFVDCPTDDATDDYRLKFVRLPSKMKFADPRTNSII"}},
  "tested_on": "mutant NMDA receptor (S1308A)",
  "test": "Gintonin-induced activation of mutant NMDA receptor S1308A in oocytes",
  "format": "cell-based",
  "conditions": "mutant S1308A (PKC phosphorylation site)",
  "experimental": "Two-electrode voltage-clamp recordings were obtained from individual oocytes placed in a small Plexiglas net chamber (5 ml). Electrophysiological experiments were performed using microelectrodes filled with 3 M KCl (resistance of 0.2-0.7 MΩ) and an Oocyte Clamp amplifier (OC-725C; Warner Instrument, Hamden, Conn.). For physiological recordings of NMDA receptor activity, oocytes were first perfused with Mg^2+-free ND96 (mM: 96 NaOH, 2 KOH, 0.3 CaCl2, 5 HEPES pH 7.6 with methanesulfonic acid). Then, the oocytes were clamped at −60 mV holding potential, followed by recoding NMDA currents (induced by administering […]) (Zheng et al., J Neurosci. 17, 8676-8686, 1997; Chang and Kuo, J Neurosci. 28, 1546-1556, 2008).\nThus, it is understood that gintonin stimulates PKC to phosphorylate the NMDA receptor at a specific site (S1308), and thus that gintonin-induced NMDA receptor activation is associated with PKC activity.",
  "data": [
    {"molecule": "B1", "values": [
      {"measurement": "gintonin-induced NMDA receptor activation", "result": "a low level of gintonin-induced NMDA receptor activation"}
    ]}
  ]
}
